Reference: the DeepSol protein solubility set

test: soluble on expression in E. coli; label from the status in PepcDB or PDB records

Row | Sequence | soluble on expression in E. coli
1 | MGIRVVFERPQGGERAVLVQLALPGVDADKALAEFEELALSAKAEVLDCVLGARATPDAKYYVGKGKAEEIAHLVNMLDADLVLVNHELSPSQERNLERLFGCRVVDRSGLILDIFAQRARTFEGKLQVELAQLQHLSTRLIRGWTHLERQKGGIGLRGPGETQLETDRRLLRERIRYINKRLEKVRCSRDQNRQARRKASMPTVSLVGYTNAGKSTLFNVLTGEHTYVADQLFATLDPTMRKLELPGSSAAILADTVGFIRDLPHHLVEAFRATLEETQQADLLLHVIDISDPNWRETVFEVQKVLDELKVNNIPVIQVFNKIDLQEGWQPKIDYTEDSCKVWLSATTGAGLDLLKEAIATQLHGMILIEDIVIKPDQAKLRAQLYQLGAVLKESVDENGDWLMKIRITADQKRRLLSAAALEHHHHHH | not soluble
2 | AMDSIAKRPRTRLSPLKRKQQLMEIALEVFARRGIGRGGHADIAEIAQVSVATVFNYFPTREDLVDEVLNHVVRQFSNFLSDNIDLDLHAKENIANITNAMIELVVQDNHWLKVWFEWSASTRDEVWPLFVTTNRTNQLLVQNMFIKAIERGEVCDQHNPEDLANLFHGICYSLFVQANRTNNTAELSKLVSSYLDMLCIYKREHE | soluble
3 | MSLAQINVAILGAGRIAQSMAETLVKMAADDRYRDLVAPYAVAARDGERAAAFAAKYGFPVSYGSYEELVADPNVNLVYIATPHNFHAEQAILCMRAGKGVLVEKAFGANTQQAREILDVSDETGMLCTEAIWTRYMPSRGMIDDIIASGVIGEVQAIDANLCYPTTAKARITDPALAGGALLDVGVYPINFIDMIMHNAPIARVESSMQPYETGVDAHNSMTFYYQNGVMATAQSSILCHSDRMGAVWGTEGYLTCQNINNVEAIDMFDGSHAVTAHYDVPEQLTGYEYEVASTAQAMLDGRTECDEMPHSDTLRIMECMDSLRADWGLKYPFEAEGHHHHHH | soluble
4 | MSLQAANLRQSRSMTLGLIVTEIINPYFAELAMAVDQIAHDAGYTIFIGYSRDHADRQHEIISSMIERQVDGILLLPAPDTDPEKLAKQVNAAGVPVVLLARRFAGFDYVGSENVKGATILGDHLSALGCRSVAFLGGLTASSLAEREEGLRASLEPRGCDVWSVDEFRSPITPEGGVAAVGRLFDQGKLPDAIIAYNDAVAQGIYDEMRRRGLEPGRDLAVASFDDTRIAASQVPPMTSVAGFPQEIGAKGAEMLMTRLADGNEDIPTQLTLIQPQLKIRSSTATWRREGHHHHHH | soluble
5 | MGSDKIHHHHHHMISQHVRKKTREYPNRFFDSSVWNDLALRRGDIVIASYAKAGTTWLQQIVAQLIFGGEPNIDVSAISPWVDGVYPDKATKLALLEAQSQRRFMKTHLPADALVTSPLARYLYIGRDGRDIALSLYDHQCAVSQDAQARVHANGGKSGKLRVVSPPGLPRDAYVAHWLEYDGAPFWPLWENVRSWWERREDANVLLLHYADLLDDLPGQIRLIAAFLGITVAQDRWDAIVAHCRFDYMRQHAARYVPQGTGLWREDGKAFFNQGRIGRWREVLPAELNTAYSRRAEAELGRDAAQWLAHGQTQTS | not soluble
6 | KTGFFVGPMAEFTLPIIGIGADVAALYSQTDLGADGEKTMKLKTFAVPVNLKWSFGLGSMLGAYIAAGPQFDFNIGNKTWTRELSLKKSTTSFNVGAGLKLIRHLQLGVNYNFALSKTGTYEYYTEGESGDGHHSVNIKNNTWQVSLAYLF | not soluble
7 | PSDTVTLFMSGDGGWRDLDKVVAGDMAKMGYPVVGIDVLRYYWEHKTPEQTAADLTDLMNHYRQKWGTKRFILAGYSFGADVMPAIYNRLAADDQNRVDAIILLAFAR | not soluble
8 | MQNDMSVVLRAGKLLIESGAEVYRVEDTMKHFAKALQIENFEAYVVSSSIIASGINRYGKQEAKVCNTDGVTANLGRLEAVNNLSRQIAKQDLVSPEEIVKQLDLIEHQKD | not soluble
9 | MKILILGNGQVGSTVAQNLAAIPNNDVTVIDIDEKALQETGSRLDVQTVFGNGASPFTLERAGAEDADLLLALSRSDETNIVACKVAADLFNIPGRIARVRSSEYLEYLSPKLENNENGSLSIFGITETISPEQLVTEQLAGLIDCPGALQVLRFADDRVRMVIIQARRGGLLVGRSIADIAQDLPDGADCQICAVYRNNRLIVPAPQTVIIEGDEILFAAAAENIGAVIPELRPKETSTRR | not soluble
